Measured values from publication PMC12948236.

Key:
thrombin [1] = target: T1, thrombin (UniProt P00734;P00734 328-363;364-622); test: AFM imaging / C-AFM; monovalent anchoring; Na+ samples: 140 mM NaCl, 40 mM Tris-acetic acid, 1 mM EDTA, 12.5 mM MgCl2, 5 mM KCl; specificity tests 5 nM origami, 100 nM protein; imaging buffer, pH and tem
thrombin [2] = target: T1, thrombin; test: AFM imaging; 5 nM origami, 100 nM thrombin; empty:filled cavities 25:0; Na+ samples: 140 mM NaCl, 40 mM Tris-acetic acid, 1 mM EDTA, 12.5 mM MgCl2, 5 mM KCl; specificity tests 5 nM origami, 100 nM protein; imaging buffer, pH and tem

| Binder | binding result (thrombin [1]) | binding result (thrombin [2]) |
| --- | --- | --- |
| DNA origami with TBA15 only (20-TBA15) (mixed, 3'-C3-S-S-C3 on edge staples; none on aptamer strand) DNA: CATCTGACCTCTGTGCTGCTTTTTGGTTGGTGTGGTTGGTTTTTTCACGGTAGCACGCATAGG | binds |  |
| DNA origami with four SA aptamers (20-SAA1) (mixed, 3'-C3-S-S-C3 on edge staples (gold samples); none on aptamer strand) DNA: TGAATCTAACGGTGCGTATCTTTTTCTGTGAGACGACGCACCGTCGCAGGTTTTGTCTCACAGTTTTGTACCTCGGAGACCAAGTAG |  | no binding |
